Assay results from US20190184007A1.

T1: HLA DQA1*0101:DQB1*0501
T1 chain 1: not shown
T1 chain 2: not shown

T2: HLA DQA1*0102:DQB1*0602, P01920
T2 chain 1: not shown
T2 chain 2: not shown


Key:
HLA DQA1*0101:DQB1*0501 = biological target: T1, HLA DQA1*0101:DQB1*0501; assay: REVEAL class II binding assay (cell-free)
[1] = biological target: T2, HLA DQA1*0102:DQB1*0602, P01920; assay: REVEAL class II binding assay (cell-free)

Binder | REVEAL 0 hrs (% of positive control signal) (HLA DQA1*0101:DQB1*0501) | REVEAL 24 hours (% of positive control signal) (HLA DQA1*0101:DQB1*0501) | REVEAL 24 hours (% of positive control signal) [1] | Stability index (HLA DQA1*0101:DQB1*0501) | REVEAL 0 hrs (% of positive control signal) [1] | Stability index [1]
RELILYDKEEMRRIWRQANNG (modifications not checked) [Peptide #2 (X181 NP fragment)] | 1.1 | 1 | 0.5 | – | – | –
VGKMIGGIGRFYIQM (modifications not checked) [Peptide #5 (Common CP sequence)] | 43.6 | 13.9 | 52.3 | 6.4 | 77.3 | 33
ALSRGFGSGIITSNA (modifications not checked) [Peptide #18 (Hemagglutinin fragment)] | 0 | 0 | 0 | 0 | 0 | 0
IDPFKLLQNSQVVSL (modifications not checked) [Peptide #8 (Common CP sequence)] | 0 | 0 | 0.1 | 0 | 0.1 | 0.1
ALNRGSGSGIITSDA (modifications not checked) [Peptide #17 (Hemagglutinin fragment)] | 0 | 0 | 0 | 0 | 0 | 0
EKATNPIVPSFDMSN (modifications not checked) [Peptide #7 (Common CP sequence)] | 0 | 0 | 0 | 0 | 0 | 0
LILYDKEEMRRIWRQ (modifications not checked) [Peptide #4 (X181 NP fragment)] | 0.1 | 0.1 | 0.4 | 0.1 | 0.5 | 0.6
AMERNAGSGIIISDT (modifications not checked) [Peptide #16 (Hemagglutinin fragment)] | 0.1 | 0.1 | 0 | 0.1 | 0 | 0
LTVAAWSVKTSPLNM (modifications not checked) [Peptide #13 (Reverse of #10)] | 0.3 | 0.3 | 0.4 | 0.4 | 0.9 | 0.2
SGAAGAAVKGVGTMV (modifications not checked) [Peptide #6 (Common CP sequence)] | 0 | 0 | 0.1 | 0 | 0.1 | 0.1
RELILYDKEEIRRIWRQANNG (modifications not checked) [Peptide #1 (X179-A NP fragment)] | 27.8 | 7.4 | 16.9 | – | 24.4 | 11.1
